The record followed here is paper PMC9891525 (PLOS Pathogens, 2023).

The labels stand for the following.
B1: REGN10987 scFv combinatorial variant d1 displayed on HEK 293T cells (scFv, V domains shown)
VH: QVQLVESGGGVVQPGRSLRLSCAASGFTFSNYAMYWVRQAPGKGLEWVAVISYTGSNKYYADSVKGRFTISRDNSKNTLYLQMNSLRTEDTAVYYCASGSDYGDYLLVYWGQGTLVTVSS
VL: QSALTQPASVSGSPGQSITISCTGTSSDVGGYNYVSWYQQHPGKAPKLMIYDVSKRPSGVSNRFSGSKSGNTASLTISGLQSEDEADYYCNSLTSIYTWVFGGGTKLTVL
B2: REGN10987 scFv combinatorial variant d3 displayed on HEK 293T cells (scFv, V domains shown)
VH: QVQLVESGGGVVQPGRSLRLSCAASGFTFSNYAMYWVRQAPGKGLEWVAVISYTGSHKYYADSVKGRFTISRDNSKNTLYLQMNSLRTEDTAVYYCASGSDYGDYLLVYWGQGTLVTVSS
VL: QSALTQPASVSGSPGQSITISCTGTSSDVGGYNYVSWYQQHPGKAPKLMIYDVSKRPSGVSNRFSGSKSGNTASLTISGLQSEDEADYYCNSLTSIYTWVFGGGTKLTVL
B3: REGN10987 scFv combinatorial variant A2 displayed on HEK 293T cells (scFv, V domains shown)
VH: QVQLVESGGGVVQPGRSLRLSCAASGFTFSNYAMYWVRQAPGKGLEWVAVISYDGSTKYYADSVKGRFTISRDNSKNTLYLQMNSLRTEDTAVYYCASGSDYGDYNLVYWGQGTLVTVSS
VL: QSALTQPASVSGSPGQSITISCTGTSSDVGGYNYVSWYQQHPGKAPKLMIYDVSKRPSGVSNRFSGSKSGNTASLTISGLQSEDEADYYCNSLTSISTWVFGGGTKLTVL
B4: REGN10987 scFv combinatorial variant d6 displayed on HEK 293T cells (scFv, V domains shown)
VH: QVQLVESGGGVVQPGRSLRLSCAASGFTFSNYAMYWVRQAPGKGLEWVAVISYIGSNKYYADSVKGRFTISRDNSKNTLYLQMNSLRTEDTAVYYCASGSDYGDYLLVYWGQGTLVTVSS
VL: QSALTQPASVSGSPGQSITISCTGTSSDVGGYNYVSWYQQHPGKAPKLMIYDVSKRPSGVSNRFSGSKSGNTASLTISGLQSEDEADYYCNSLTSIYTWVFGGGTKLTVL
B5: REGN10987 scFv combinatorial variant d8 displayed on HEK 293T cells (scFv, V domains shown)
VH: QVQLVESGGGVVQPGRSLRLSCAASGFTFSNYAMYWVRQAPGKGLEWVAVISYLGSNKYYADSVKGRFTISRDNSKNTLYLQMNSLRTEDTAVYYCASGSDYGDYLLVYWGQGTLVTVSS
VL: QSALTQPASVSGSPGQSITISCTGTSSDVGGYNYVSWYQQHPGKAPKLMIYDVSKRPSGVSNRFSGSKSGNTASLTISGLQSEDEADYYCNSLTSIYTWVFGGGTKLTVL
B6: REGN10987 scFv combinatorial variant d2 displayed on HEK 293T cells (scFv, V domains shown)
VH: QVQLVESGGGVVQPGRSLRLSCAASGFTFSNYAMYWVRQAPGKGLEWVAVISYDGSHKYYADSVKGRFTISRDNSKNTLYLQMNSLRTEDTAVYYCASGSDYGDYLLVYWGQGTLVTVSS
VL: QSALTQPASVSGSPGQSITISCTGTSSDVGGYNYVSWYQQHPGKAPKLMIYDVSKRPSGVSNRFSGSKSGNTASLTISGLQSEDEADYYCNSLTSIYTWVFGGGTKLTVL
B7: REGN10987 scFv combinatorial variant A1 displayed on HEK 293T cells (scFv, V domains shown)
VH: QVQLVESGGGVVQPGRSLRLSCAASGFTFSNYAMYWVRQAPGKGLEWVAVISYDGSFKYYADSVKGRFTISRDNSKNTLYLQMNSLRTEDTAVYYCASGSDYGDYNLVYWGQGTLVTVSS
VL: QSALTQPASVSGSPGQSITISCTGTSSDVGGYNYVSWYQQHPGKAPKLMIYDVSKRPSGVSNRFSGSKSGNTASLTISGLQSEDEADYYCNSLTSISTWVFGGGTKLTVL

This experiment addresses biotinylated recombinant SARS-CoV-2 wild type spike RBD (SARS-CoV-2, wild type, UniProt P0DTC2, biotin (biotinylated; detected with streptavidin-FITC)). The experiment in a line: flow cytometry on cells. The following applies: one partner purified.
As for B1, the binding result was “binds”. The entry for B2 is “binds”. On to B3, for which the binding result is reported as “binds”. With B4, the binding result is recorded as “binds”.

For the molecule B5, the binding result is listed as “binds”. The entry for B6 is “binds”; for B7 it is “binds”.
